To fix the notation:
B1: mAb 12G3H11, human anti-human EphA2 monoclonal antibody, wild type hinge (antibody, human IgG1, V domains shown)
VH: QMQLVQSGPEVKKPGTSVKVSCKASGFTFDDYSMNWVRQARGQRLEWIGFIRNKANDYTTEYADSVKGRVTITRDMSTSTAYMELSSLRSEDTAVYYCARYPRHHAMDSWGQGTSVTVSS
VL: DIQMTQSPSSLSASVGDRVTITCRASQSISNNLHWYQQKPGKAPKLLIKYAFQSISGVPSRFSGSGSGTDFTFTISSLQPEDFATYYCQQANSWPLTFGGGTKVEIK
notes: Human IgG1/kappa expressed in HEK 293 cells; also called Wild type (12G3H11); 12G3H11 “wild type”; not shown: human kappa light chain constant region
B2: 12G3H11 Fc variant 13-2 AA Delete Mid (antibody, IgG1)
heavy (part 1 of 2): QMQLVQSGPEVKKPGTSVKVSCKASGFTFDDYSMNWVRQARGQRLEWIGFIRNKANDYTTEYADSVKGRVTITRDMSTSTAYMELSSLRSEDTAVYYCARYPRHHAMDSWGQGTSVTVSS
heavy (part 2 of 2): not shown
light: DIQMTQSPSSLSASVGDRVTITCRASQSISNNLHWYQQKPGKAPKLLIKYAFQSISGVPSRFSGSGSGTDFTFTISSLQPEDFATYYCQQANSWPLTFGGGTKVEIK
notes: domain: lower hinge, CH2, CH3; 12G3H11 IgG1/kappa; T223 and H224 deleted; not shown: human IgG1 heavy chain constant region, CH1 up to EU 215; human IgG1 heavy chain constant region from EU 231 (lower hinge, CH2, CH3); human kappa light chain constant region
B3: 12G3H11 Fc variant 5-GGG Insert Low (antibody, IgG1)
heavy (part 1 of 2): QMQLVQSGPEVKKPGTSVKVSCKASGFTFDDYSMNWVRQARGQRLEWIGFIRNKANDYTTEYADSVKGRVTITRDMSTSTAYMELSSLRSEDTAVYYCARYPRHHAMDSWGQGTSVTVSS
heavy (part 2 of 2): not shown
light: DIQMTQSPSSLSASVGDRVTITCRASQSISNNLHWYQQKPGKAPKLLIKYAFQSISGVPSRFSGSGSGTDFTFTISSLQPEDFATYYCQQANSWPLTFGGGTKVEIK
notes: domain: lower hinge, CH2, CH3; 12G3H11 IgG1/kappa; GGG inserted between P227 and P228; not shown: human IgG1 heavy chain constant region, CH1 up to EU 215; human IgG1 heavy chain constant region from EU 231 (lower hinge, CH2, CH3); human kappa light chain constant region
B4: 12G3H11 Fc variant 11-4 AA Delete (antibody, IgG1)
heavy (part 1 of 2): QMQLVQSGPEVKKPGTSVKVSCKASGFTFDDYSMNWVRQARGQRLEWIGFIRNKANDYTTEYADSVKGRVTITRDMSTSTAYMELSSLRSEDTAVYYCARYPRHHAMDSWGQGTSVTVSS
heavy (part 2 of 2): not shown
light: DIQMTQSPSSLSASVGDRVTITCRASQSISNNLHWYQQKPGKAPKLLIKYAFQSISGVPSRFSGSGSGTDFTFTISSLQPEDFATYYCQQANSWPLTFGGGTKVEIK
notes: domain: lower hinge, CH2, CH3; 12G3H11 IgG1/kappa; T223, H224, P227 and P228 deleted; not shown: human IgG1 heavy chain constant region, CH1 up to EU 215; human IgG1 heavy chain constant region from EU 231 (lower hinge, CH2, CH3); human kappa light chain constant region
B5: 12G3H11 Fc variant 14-T to C Middle (antibody, IgG1)
heavy (part 1 of 2): QMQLVQSGPEVKKPGTSVKVSCKASGFTFDDYSMNWVRQARGQRLEWIGFIRNKANDYTTEYADSVKGRVTITRDMSTSTAYMELSSLRSEDTAVYYCARYPRHHAMDSWGQGTSVTVSS
heavy (part 2 of 2): not shown
light: DIQMTQSPSSLSASVGDRVTITCRASQSISNNLHWYQQKPGKAPKLLIKYAFQSISGVPSRFSGSGSGTDFTFTISSLQPEDFATYYCQQANSWPLTFGGGTKVEIK
notes: domain: lower hinge, CH2, CH3; 12G3H11 IgG1/kappa; T223C; not shown: human IgG1 heavy chain constant region, CH1 up to EU 215; human IgG1 heavy chain constant region from EU 231 (lower hinge, CH2, CH3); human kappa light chain constant region
B6: 12G3H11 Fc variant 18-EPKS to PPPP (antibody, IgG1)
heavy (part 1 of 2): QMQLVQSGPEVKKPGTSVKVSCKASGFTFDDYSMNWVRQARGQRLEWIGFIRNKANDYTTEYADSVKGRVTITRDMSTSTAYMELSSLRSEDTAVYYCARYPRHHAMDSWGQGTSVTVSS
heavy (part 2 of 2): not shown
light: DIQMTQSPSSLSASVGDRVTITCRASQSISNNLHWYQQKPGKAPKLLIKYAFQSISGVPSRFSGSGSGTDFTFTISSLQPEDFATYYCQQANSWPLTFGGGTKVEIK
notes: domain: lower hinge, CH2, CH3; 12G3H11 IgG1/kappa; EPKS replaced by PPPP; not shown: human IgG1 heavy chain constant region, CH1 up to EU 215; human IgG1 heavy chain constant region from EU 231 (lower hinge, CH2, CH3); human kappa light chain constant region
B7: 12G3H11 Fc variant 6-GGG Insert High (antibody, IgG1)
heavy (part 1 of 2): QMQLVQSGPEVKKPGTSVKVSCKASGFTFDDYSMNWVRQARGQRLEWIGFIRNKANDYTTEYADSVKGRVTITRDMSTSTAYMELSSLRSEDTAVYYCARYPRHHAMDSWGQGTSVTVSS
heavy (part 2 of 2): not shown
light: DIQMTQSPSSLSASVGDRVTITCRASQSISNNLHWYQQKPGKAPKLLIKYAFQSISGVPSRFSGSGSGTDFTFTISSLQPEDFATYYCQQANSWPLTFGGGTKVEIK
notes: domain: lower hinge, CH2, CH3; 12G3H11 IgG1/kappa; GGG inserted between D(Kabat 234) and K222; not shown: human IgG1 heavy chain constant region, CH1 up to EU 215; human IgG1 heavy chain constant region from EU 231 (lower hinge, CH2, CH3); human kappa light chain constant region

Our source for the Kd values is patent US20110077383A1 (AstraZeneca / MedImmune, published 2011).

T1 sequence (P29317 25-534 limits assumed): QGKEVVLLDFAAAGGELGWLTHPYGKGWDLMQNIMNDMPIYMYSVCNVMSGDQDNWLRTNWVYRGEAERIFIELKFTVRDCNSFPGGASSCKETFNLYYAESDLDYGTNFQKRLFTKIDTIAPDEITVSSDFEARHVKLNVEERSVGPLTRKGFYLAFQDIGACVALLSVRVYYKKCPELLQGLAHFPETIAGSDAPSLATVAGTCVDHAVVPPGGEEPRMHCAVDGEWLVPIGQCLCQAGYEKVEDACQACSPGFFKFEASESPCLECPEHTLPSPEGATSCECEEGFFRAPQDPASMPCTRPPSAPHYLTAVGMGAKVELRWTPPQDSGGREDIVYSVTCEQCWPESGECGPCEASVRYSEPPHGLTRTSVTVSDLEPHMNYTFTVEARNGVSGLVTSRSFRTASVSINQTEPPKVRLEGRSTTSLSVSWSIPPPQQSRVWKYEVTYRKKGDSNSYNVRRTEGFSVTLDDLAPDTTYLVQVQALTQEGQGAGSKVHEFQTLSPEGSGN

The assay concerns the target T1, human EphA2-Fc (human, UniProt P29317 25-534, limits assumed).
T1 construct: Coated on Azlactone beads and titrated in solution in KinExA; not shown: Fc part
Put plainly: KinExA, EphA2-Fc beads, solution equilibrium titration. How it is done:
Protein concentrations were calculated by the BCA method. […] Coated beads were then separated from unreacted EphA2-Fc using a gentle pulse spin and blocked for approximately 2 h at room temperature with 1 M Tris, pH 8.0, bovine serum albumin 10 mg/mL. Beads were then resuspended in 30 mL of run buffer (PBS, pH 7.4-0.02% NaN₃) and packed into a column. […] The amount of free IgG in the samples was derived from the fluorescence signal obtained after the passing of Cy5-labeled goat anti-human IgG F(ab′)₂ (typically 0.5-2 μg/ml; Jackson ImmunoResearch Laboratories, West Grove, Pa.) through the column.
A general note: A kinetic exclusion assay measures how much of one partner remains free in solution.
In the case of B1, binding was characterised by a dissociation constant (Kd) of 1.1 pM.
The same measure for B2: 1.7 pM.
As for B3, the figure is 0.8 pM; as for B4, at most 1 pM; as for B5, 7.2 pM.
Turning to B6, the Kd (usually the constant that tells how readily two partners part at equilibrium) worked out at 1.5 pM.
As for B7, the figure is 2.7 pM.
